Test results as given in the supplement of paper PMC12636428.

Tested on: Saccharomyces cerevisiae
Experiment: transcriptional activation domain activity (GFP:mCherry ratio, weighted mean of sorted bins, harmonized to initial dataset scale) (arbitrary fluorescence ratio units); higher = stronger transcriptional activation
Settings: beta-estradiol 1 µM; induction time 4 h
How it was run: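 The activation activity of each tile is the read-weighted mean of bin median fluorescence, averaged across its barcodes and mapped linearly onto the scale of the initial dataset. Tiles were fused to an estradiol-inducible synthetic transcription factor, barcoded, and integrated at URA3 in yeast diploids carrying a GFP reporter. Induction used 1 uM beta-estradiol in SC for 4 hours at 30 °C, after which cells were sorted into 8 GFP:mCherry bins, and any tile with fewer than 50 reads was dropped.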

Sequence | transcriptional activation domain activity
MREAERAREEQEQERRRVEKVREREREREQERLERERLKAERERAAAAAVVAA | 40100
MSLAHGHLFNRLQAVGPWDSLCCMGCDLSTLYLAALHSPWRVSWWRFLILGLL | 58200
EGKTRESKQKQGRERIGKGKGSREKGERREEEEGKGGKRRAGRKEGEWRSRGS | 32400
MSTPFLANLLLIIWPTYYLLALSLHRALFQCTLSDFFSFFFFFFFFLFFLPFF | 52800
VGRVTDKSSLVYDWPFDESIERNFSTTATAATGESKFDINDNCNRINSKSYSK | 45900
MHYTTLLYFIYISFNFFTLILILFFNPFFFVSILSFSFLLFLFCCCSISEVVV | 64300
WFAKFVVRLVYCLAWVRGQLLRRSSPIQTMMLALRCPHVLPWIDAGTPRLYIY | 54700
DEVTDWFGASEDIGLEFVEPWTELIEQRYMQCGDGDNNNFENLYNLFVNSNNI | 137000
LSFRFLDYTSLTHCVDYRNPALAFNILVTCLLFLILRPKPLVLYWCLVCIGFW | 44700
DGEGEDAEDGSKKDAEVAYHSGLGLKFRYPGDPKKLREASKLKLWTAYLKDHG | 55100
QKMQKSGGFVNINVFGFVFIIAVSCVVVTLDITLLKFLIFISEFQRLTHLSAR | 45400
LDRTVEAFRHADALRDVHLYGMVFSYFKMPLWQLTRFSGDIIGLNEYLLLFYN | 38000
MEWVRTARGRVPPGRRPVEGGYESSGARLYHALAVVDGVRVPGKTGEHLGGCN | 32000
PNYEQHPAPAPAPAPGNKPEEHHEEKPEEHHEEKPSYEQHPAPAPAYQANAPH | 19400
KIHLVNLLQISVLFVHRFIFGLVPLFEITTCAFFPLLISLWHLDYILFYVVMF | 53800
HHLVITHVILFCLITFRCFTVIVRSIYERWHIKSAVIVLDLGSSWGLAANVPW | 43600
EGKEERGKGGEGEGGEGGEGERRDGKREGREGNGNRGGTEGKGERRKRKSQRE | 28700

Sequence | transcriptional activation domain activity
MQQLFTFGSLFFPSFHPFFFFFFFFCHPSFLFFFLPSFLPFFLFFFLPSFLPF | 58000
KLHQQAKSDFDELQESIPHQVGFSTPQLTAQQLIENAIESGVVDLETLDLPPF | 112000
NDGNESNEDYLGNEKFYLNEILPDEESKLRWKRVFENSENDHDNEKNFLTDWE | 39900
VWEAVTTGFDGGFVPRTRDADAGTRRTGGSVRAEERKEKLRAWRVSRCWAVLA | 56500
EGEEGEEGEEGEEGEEGTCCASPLQSLALSRLRLGLSLLVDCISIESMRTYRL | 34500
MGEEDAKVGAGPALQVIVLGSGGGPQENNVTALLVRSVNSNWARGSMLALDAG | 36500
SSPSSQTSSSTSVVLVFGLEEKRVKEAGEQLKSKLGVKGGGKGPRWSGKFVGV | 51600
ANPEPTDDDFHIFGGRHVFFTTDDPWLIFLGFILQHLDRLLNRMLFWWCVEWV | 56900
TMFHGLLFHLCHGAAVLVVWSFHHVVCSMRDDEETLQVMEELDYVIHVLNAFA | 47800
LPRFFFLSFYTFLLIFPLLHLFHHLSLLFSPPILLYSSLILFFSHFLPLLLFL | 38900
GSVKKKLASSSRTGQACDRCKVRKIRCDPRPEGCSPCAQNRTPCKTTDRITGR | 41900
RQIESMVAPCLVELRIWNIGAYANLCEYSTWLRLWWIRWSMYGIQFQDKTGKP | 61100
LGVLLLLLLYANVVLLIYHAPTTRKPFDLAFIHAPVRAFMLLPLTILFPYSLF | 57300
FCVAAMIGEYGTTYYPTVTYWGELEVLGKIFWTLPLESFANSISGIIVDCYLI | 63500
MFISICICSPYFQGCLAHTFYLFFYWGYLDCSLPPLVLQQRLLLWLLFDSFFI | 46000
DEEDIWNYLPSSSSQQEDSSRALKKNTNSEKANIQAKNDETYLFLQDQDESAD | 46700
MHRLHYLMCIIIGVRLTAVVGLGRHRVVYVYCFCFSDTSRKMVRQDGIKLFTA | 43200
